Source: patent US20050026822A1 (HOWARD FLOREY INSTITUTE OF EXPERIMENTAL PHYSIOLOGY AND …, published 2005)
Bridge positions count the residues as written; N and C are the ends. Ends that are not written are not given here. I, II: the chains in the order shown.

T1: Human relaxin receptor on THP-1 cells (human, UniProt Q9HBX9 1-757)
T1 sequence (looked up): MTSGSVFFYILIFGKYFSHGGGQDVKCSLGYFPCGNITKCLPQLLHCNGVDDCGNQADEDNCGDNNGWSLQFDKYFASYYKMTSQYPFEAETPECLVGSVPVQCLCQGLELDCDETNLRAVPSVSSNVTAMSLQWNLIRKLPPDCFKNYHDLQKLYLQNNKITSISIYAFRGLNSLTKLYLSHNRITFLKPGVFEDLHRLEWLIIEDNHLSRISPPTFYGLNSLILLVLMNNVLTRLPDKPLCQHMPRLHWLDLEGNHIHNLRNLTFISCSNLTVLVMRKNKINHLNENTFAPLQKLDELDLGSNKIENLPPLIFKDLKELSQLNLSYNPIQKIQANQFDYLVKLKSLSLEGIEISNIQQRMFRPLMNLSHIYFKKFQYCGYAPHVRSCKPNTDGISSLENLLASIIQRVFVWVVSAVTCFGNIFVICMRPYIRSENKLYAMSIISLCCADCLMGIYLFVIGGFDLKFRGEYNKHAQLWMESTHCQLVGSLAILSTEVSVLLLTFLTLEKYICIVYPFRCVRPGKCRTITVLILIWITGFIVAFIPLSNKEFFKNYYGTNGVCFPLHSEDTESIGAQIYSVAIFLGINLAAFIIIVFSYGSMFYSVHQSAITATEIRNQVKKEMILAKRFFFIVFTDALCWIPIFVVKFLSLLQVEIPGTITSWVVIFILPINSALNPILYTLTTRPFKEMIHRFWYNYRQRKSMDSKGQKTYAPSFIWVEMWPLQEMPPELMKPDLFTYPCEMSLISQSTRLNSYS

B1: Synthetic human H1 relaxin (ligand)
chain 1: RPYVALFEKCCLIGCTKRSLAKYC
chain 2: KWKDDVIKLCGRELVRAQIAICGMSTWS
notes: mature; Synthesized previously (Wade et al 1996); also called human 1 relaxin
B2: Synthetic human H3 relaxin [hRlx-3 A(1-24) amide-B(1-27) amide] (ligand)
chain 1: DVLAGLSSSCCKWGCSKSEISSLC-NH2
chain 2: RAAPYGVRLCGREFIRAVIFTCGGSRW-NH2
modifications: disulfide I:10-I:15, I:11-II:10, I:24-II:22
notes: Made by solid phase synthesis; also called human 3 relaxin; synthetic H3 relaxin C-terminal amide derivative
B3: Recombinant human H2 relaxin (ligand)
chain 1: QLYSALANKCCHVGCTKRSLARFC
chain 2: DSWMEEVIKLCGRELVRAQIAICGMSTWS
modifications: not fully specified (bridges); ends and bridges not checked
notes: mature; Gift from Connetics Corporation; also called human 2 relaxin

Biological target: T1, Human relaxin receptor on THP-1 cells
Assay: cell-based or functional assay

Binder | cAMP production in THP-1 cells, EC50 | cAMP production in THP-1 cells, pEC50
B1 | 0.794 nM | 9.1
B2 | 2.11 nM | 8.68
B3 | 0.214 nM | 9.67

Biological target: T1, Human relaxin receptor on THP-1 cells
Assay: competition with 33P-labeled H2 (B33) relaxin (100 pM) for binding to THP-1 cells
Experimental: THP-1 Cell Binding Assay—THP-1 cells were spun down and resuspended in binding buffer (20 mM HEPES, 50 mM NaCl, 1.5 mM CaCl₂, 1% BSA, 0.1 mg/ml lysine, 0.01% […], pH 7.5) (Parsell et al (1996) J. Biol. Chem. 271, 27936-27941) to give 2×10⁶ cells/well in a 96-well plate. The cells were incubated in binding buffer with ³³P-labeled H2 (B33) relaxin (100 pM: labeled as previously described (Tan et al (1999) Br. J. Pharmacol. 127, 91-98) at 25° C. for 90 min in the absence or presence of increasing concentrations of unlabeled H1, H2 and H3 relaxin (100 pM to 30 nM). Non-specific binding was defined with H2 relaxin (1 μM. Cells were harvested using a Packard 96-well plate cell harvester and Whatman GF/C glass fibre filters treated with 0.5% polyethylenimine. The filters were washed three times with modified binding buffer (20 mM HEPES, 50 mM NaCl, 1.5 mM CaCl₂), dried in a 37° C. oven, and the radioactivity counted by liquid scintillation spectrometry (TopCount™, Canberra Packard, Australia).

Binder | pKi
B1 | 8.9
B2 | 7.5
B3 | 8.74
